Data reported in publication PMC9859039, “The conserved centrosomin motif, γTuNA, forms a dimer that directly activates microtubule nucleation by the γ-tubulin ring complex (γTuRC)” (eLife, 2022).
Each block holds one molecule with its values, some of them ahead of it. No end group written: not given here. 3C = human rhinovirus 3C (PreScission) protease cleavage site; TEV = tobacco etch virus protease cleavage site; Strep‑His = not defined here

Assays:
[1] = biological target: γ-tubulin ring complex (γTuRC), endogenous Xenopus laevis, P23330;Q5U4M5; assay: pull-down from Xenopus egg extract, western blot quantification; conditions: control (beads) bar est. 0.19, read off a plot; for ratio to parent: parent: est. 1.0; for response: scale: normalized band intensity
[2] = biological target: γ-tubulin ring complex (γTuRC), endogenous Xenopus laevis (Xenopus laevis (endogenous in egg extract)) (UniProt P23330)
Sequence of γ-tubulin ring complex (γTuRC), endogenous Xenopus laevis (Xenopus laevis (endogenous in egg extract)) (P23330 whole entry, looked up, the tested form may be a part, one chain of several): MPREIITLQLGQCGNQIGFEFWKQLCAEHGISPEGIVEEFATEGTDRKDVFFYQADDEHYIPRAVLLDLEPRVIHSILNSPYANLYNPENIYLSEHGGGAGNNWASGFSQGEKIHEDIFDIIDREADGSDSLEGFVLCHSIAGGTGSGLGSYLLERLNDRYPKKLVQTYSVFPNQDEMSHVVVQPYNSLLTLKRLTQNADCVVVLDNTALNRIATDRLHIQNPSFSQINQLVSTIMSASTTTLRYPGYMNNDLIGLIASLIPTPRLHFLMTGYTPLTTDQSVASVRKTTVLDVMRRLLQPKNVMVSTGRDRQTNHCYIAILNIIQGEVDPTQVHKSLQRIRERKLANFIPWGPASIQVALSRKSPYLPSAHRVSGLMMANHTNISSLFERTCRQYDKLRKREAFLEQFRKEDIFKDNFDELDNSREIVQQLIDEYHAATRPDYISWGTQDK

[3] = biological target: γ-tubulin ring complex (γTuRC), endogenous Xenopus laevis (Xenopus laevis (endogenous in egg extract)) (UniProt P23330); remark: listed apart in the source
[4] = biological target: Strep-His-TEV-HaloTag-3C-Xenopus γTuNA (Xenopus Cdk5rap2 aa 56–101), wildtype (Xenopus laevis); assay: pull-down; depletion of Xenopus egg extract with Strep-His-Halo-Xenopus γTuNA-coupled beads, a single round; γ-tubulin left in the extract by western blot against mock-treated extract
[5] = biological target: Strep-His-TEV-HaloTag-3C-Xenopus γTuNA I67A (Xenopus laevis); assay: pull-down; Halo-Magne beads coupled to N-terminally Halo-tagged γTuNA baits; 200 µL Xenopus egg extract + 800 µL CSFxB (2% sucrose), 2 hr at 4 °C, washed twice, boiled in SDS sample buffer; western blot of GCP5 and γ-tubulin, band intensities normalised to the wildtype bait
[6] = biological target: Strep-His-TEV-HaloTag-3C-Xenopus γTuNA L70A (Xenopus laevis); assay: as above
[7] = biological target: AU1-human γTuNA (from Strep-His-Halo-3C-AU1-human γTuNA after PreScission cleavage) (human); assay: co-sedimentation; γTuRC pulled from egg extract on Halo-3C-AU1-human γTuNA beads, eluted by 3C cleavage, 10–50% w/w sucrose gradient (200,000 g, 2 °C, 3 hr); AU1 in the peak γTuRC fraction by western blot against a titration of AU1
[8] = biological target: the molecule itself; assay: SEC; Superdex 200 increase 10/300 GL, ~50 µM (monomer), CSFxB with 6 mM BME without sucrose, 4 °C, 0.7 mL/min; peak retention volumes compared

ratio to parent ([1]; N=2): 0.66
Molecule: Strep-His-TEV-HaloTag-3C-Xenopus γTuNA (Xenopus Cdk5rap2 aa 56–101), wildtype F63A

ratio to parent ([1]; N=2): 0.08
response ([1]; N=3, parent: est. 1.06): 0.02
Molecule: Strep-His-TEV-HaloTag-3C-Xenopus γTuNA (Xenopus Cdk5rap2 aa 56–101), wildtype F75A

response ([1]; N=3, parent: est. 1.06): 0.01
Molecule: Strep-His-TEV-HaloTag-3C-Xenopus γTuNA (Xenopus Cdk5rap2 aa 56–101), wildtype I67D; L70D

ratio to parent ([1]; N=2): 0.05
Molecule: Strep-His-TEV-HaloTag-3C-Xenopus γTuNA (Xenopus Cdk5rap2 aa 56–101), wildtype L77A

response ([1]; N=2, human wildtype not shown in this panel): 0.16
Molecule: Strep-His-TEV-HaloTag-3C-human γTuNA (human CDK5RAP2 aa 53–98), wildtype I67A; L70A

ratio to parent ([1]; N=3): 0.1
Molecule: Strep-His-TEV-HaloTag-3C-human γTuNA (human CDK5RAP2 aa 53–98), wildtype I67D; L70D

ratio to parent ([1]; N=3): 0.07
Molecule: Strep-His-TEV-HaloTag-3C-human γTuNA (human CDK5RAP2 aa 53–98), wildtype I67D; L70D; L77D

MT number (EB1 spots) in egg extract with 2 µM γTuNA, relative to wildtype γTuNA (% of wildtype) [2]: 50
Molecule: Strep-His-Xenopus γTuNA I67A (domain or fragment)

MT number (EB1 spots) in egg extract with 2 µM γTuNA, relative to wildtype γTuNA (% of wildtype) [2]: 6
Molecule: Strep-His-Xenopus γTuNA L70A (domain or fragment)

MT number (EB1 spots) in Xenopus egg extract by TIRF, titration of γTuNA up to 3.6 µM, fold over buffer [3]: 75 fold
Molecule: Strep-His-Xenopus γTuNA, wildtype (domain or fragment)

percent of γ-tubulin signal lost from the extract after one depletion [4]: > 75%
γTuRC pulled down, percent of wildtype [5]: 67%
γTuRC pulled down, percent of wildtype [6]: 35%
percent of purified γTuRCs that retain a γTuNA dimer [7]: 33%
Molecule: γ-tubulin ring complex (γTuRC), endogenous Xenopus laevis (from UniProt P23330 1-451; Q5U4M5 1-72)

B1: Strep-His-TEV-HaloTag-3C-Xenopus γTuNA F75A (Xenopus F71A) (domain or fragment, Xenopus laevis)
chain: {Strep‑His-TEV-HaloTag-3C}-MKDFEKQIAELKKENANLKLRIYFLEEQVQQKCDNSSEDLYRMNIE
modifications: reading uncertain
notes: γTuNA of Xenopus laevis Cdk5rap2 isoform X1, aa 56–101; it is F71 in Xenopus; also called Halo-Xenopus γTuNA F75A; Xenopus F75A mutant; source: E. coli Rosetta 2 (DE3), purified (Strep-Tactin); not shown: StrepTagII, N-terminal, kept; 6xHis, N-terminal, kept; HaloTag, N-terminal, kept
binding result [8]: binds

B2: Strep-His-TEV-HaloTag-3C-human γTuNA (human CDK5RAP2 aa 53–98), wildtype (domain or fragment)
chain: {Strep‑His-TEV-HaloTag-3C}-SPTRARNMKDFENQITELKKENFNLKLRIYFLEERMQQEFHGPTEH
modifications: reading uncertain
notes: γTuNA (CM1) domain of human CDK5RAP2 isoform A (1893 aa), aa 53–98; TEV and PreScission (3C) cleavage sites lie between the tags and γTuNA; also called Halo-human γTuNA; human wildtype Halo-γTuNA; source: E. coli Rosetta 2 (DE3), purified (Strep-Tactin); not shown: StrepTagII, N-terminal, kept; 6xHis, N-terminal, kept; HaloTag, N-terminal, kept
stoichiometry N [8]: 2

B3: Strep-His-TEV-HaloTag-3C-Xenopus γTuNA (Xenopus Cdk5rap2 aa 56–101), wildtype (domain or fragment, Xenopus laevis)
chain: {Strep‑His-TEV-HaloTag-3C}-MKDFEKQIAELKKENFNLKLRIYFLEEQVQQKCDNSSEDLYRMNIE
modifications: reading uncertain
notes: γTuNA (CM1) domain of Xenopus laevis Cdk5rap2 isoform X1 (905 aa), aa 56–101; TEV and PreScission (3C) cleavage sites lie between the tags and γTuNA; also called Halo-Xenopus γTuNA; Strep-His-Halo-Xenopus γTuNA; source: E. coli Rosetta 2 (DE3), purified (Strep-Tactin); not shown: StrepTagII, N-terminal, kept; 6xHis, N-terminal, kept; HaloTag, N-terminal, kept
stoichiometry N [8]: 2
